Test: yeast display, Sf9 membrane polyspecificity reagent, FACS + sequencing; frameworks hold sequencing errors
Procedure, shortened: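 Nanobodies from a synthetic yeast display library (Saccharomyces cerevisiae BJ5465), induced 36–48 hours with galactose, were stained 1 hour at 4 °C with 10% biotinylated, detergent-solubilized Sf9 membrane reagent, enriched on streptavidin microbeads, then FACS-sorted. Anti-HA (expression) and streptavidin (reagent binding) fluorescence set low and high (top ~1%) gates. Polyreactivity labels come from the gate of origin. Genes were colony-PCR amplified, MiSeq 2 × 250 sequenced and filtered by CDR length.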

Row | Sequence | polyreactivity (PSR sort gate)
1 | QVQLVESGGGLDQAGGSLRLSCAASGSIFYVNAMGWYRQAPGKERELVAAITSGGSTSYADSVKGRFTISRDNAKNTVYLQMNSLKPEDTAVYYCAADWDYPEQYRVNYEYGYWGLGTQVTVSS | low polyreactivity
2 | QVQLVESGGCLVQAGGSLRLSSAASGSTFQNYAMGWYRQATGKERELVAAISSGGRTYYADSVKGRFTISRDNAKNTVYLQMYSLKPEDTAVYYCAVRYRVYKFQYGYWGQGTQVTVSS | high polyreactivity
3 | QVHLVESGGGLVQAGGSLRLSCAASGITFGRNTMGWSRQAPGKERELVDAIDSCGNTYADSVKGRFTISRDNAKNTVYLKMNIVNPEDTAVYYCAVDGGEFSSYGEWGQGTQVTVAS | low polyreactivity
4 | QVQLVESGGGLVQAGGSLRLSCAASGRIFAGYAMGWYRQAPGKERELVARISRGDDSTYYADSVKGRFTISRDNAKNTVYLQMNSLKPEDTAFYFCAADYPDVVYLEYDYWGQGTQVTVSS | low polyreactivity
5 | QVQLVESGGGLVQAGGSLRLSCAASRRTFSYNTMGWYRQAPGTERELVARITWGGGSTNYADSVKGRFTISRDNAKNTVYLQMNSLKPEDTAVYYCAAGPSVPYGPQKVDYWGQGTQVTVSS | low polyreactivity
6 | QVQLVESGGGLVQAGGSLRLSCAASGSTFVNNVMGWYRQAPGKERELVAAISGRGGNTYYADSVKGRFTISRDNAKNTVYLQMNSLKPEDTAVYYCAPYSWGWSLWTYDYWGQGTQVTVSS | high polyreactivity
7 | QVQLVESGGGLVQAGGSLRLSCAASGIIFSRYAMGWYRPAPGKVRELVASITGRVGSTYYADSVKGPFTISRDNAKNTVYLQMNRLNPEDTAVYYCAADYVYKFDYWGHGTQVTVSS | low polyreactivity
8 | QVQLVESGGGLVQAGGSLRLSCAASGLTFLNNAMGWYRQAPVKERELVAAISVGGSTNYADSVKGRFTISRDNAKNTVYLQMNSLKPEDTAVYYCAAVYTSASYGSWGQGTQVTVSS | low polyreactivity
9 | QLQLVESGGGLVQAGGSLRLSCAASGSIYYEKVMGWYRQAPGKERELVAGISRSGGRTYYADSVKGRFTISRDNAKNTVYLQMNSLKPEDTAVYYCAALTPRNRYRKFDYWGQGTQVTVSS | high polyreactivity
10 | QVQLVESGGGLVQAGGSLRLSCAASGLISTPNAMGWSRQAPGKERELVASISSRGGSTYYADSVKGRFTISRDNAKNTVYLQMNSLKPEDTAVYYCAADAYRDFYYEYYYWGQGSQVTVSS | low polyreactivity
11 | QVQHVESGRGLVQAGVSLRLSCAASGIFFGAYAMGWYRQAPGKEREFVAAISRSGGSTYYADSVKGRFTISRDYAKNTVYFQKNSLKPEDSAVYYCNALAKYHYYLGQGTQVTVSS | high polyreactivity
12 | QVQLVESGGGLVQAGGSLRLSCAASGSIFISYAMGWYRQAPGKERELVAAISRSAGRTYYADSVKGRFTISRDNAKNTVYLQMNSLKPEDTAVYYCAASGYKNGVYTYGYWGQGTQVTVSS | high polyreactivity
13 | QVQLVESGGGLVQAGGRLRLSCAASGSIFAGYAMGWYRQAPGKERELVAAITSSCGSTYYADSVKGRFTISRDNAKNTVYLQMNSLNPEDTAVYYCAKDKLIFYRVGSDYWGQGTQVTVSS | low polyreactivity
14 | QVQLQESGGGLVQAGGILRRSCAACGNIFPSAVMGWYRQALGKEREFVATINSGSNTYYADSVKGRFTISRDNAKNTVYLQMNSLKLEDTAVYYCAAYFKLPAWHTYWGQGTQVTVSS | low polyreactivity
15 | QVQLVESGGGLVQAGGSLRLSCAASGSIIDLNAMGWYRKAHGKERELVAAISSGGITYYADSVKGRFTISRDNAKNTVYLHMNSLKPEDTAVYYCAARYNHYFSLYDYWGQGTQVTVSS | high polyreactivity
16 | QVQLEESRGGLVQAGGSLRLSCAASGYIFSYYDMGWYRQAPGKERELVASITSSGGSTYYADSVKGRFTISRDNGKNTVYLQMNSLKPEDTAVYYCNADVYDTYSPLGYYFWGQGTQVTVSS | low polyreactivity
17 | QVQLVESGGGLVQAGGSLRLSCAASGRTFRFYVMGWYRQAPGKERELVAAISRGGGSTYYADSVKGRFTISRDNAKNTVYLQMNSLKPEDTAVYYCAAKPYKTRSSYWGDYYWGQGTQVTVSS | high polyreactivity
18 | QVQLVESGGGLVQAGGSLRLSCAASGIIFAKYAMGWYRQPPGKERELVASISRPGGSTYYADSVKGRFTISRDNAKNTVYLQMNSLKPEDTAVYDCNAPGLRDYDAEYDYWGQGTQVTVSS | high polyreactivity
19 | QVQLVESGGGLVQAGGSLRLSCAASGSTSRGYAMGWYRQAPGEERELVASITLSGGNTYYADSVKGRFTISRDNAKNTVYLQMNSLKPEDTAVYYCAADDRGSSYGHFTVEYGYWGQGTQVTVSS | low polyreactivity
20 | QVQLVESGGGLVQAGGSLRLSCAASGSIFPVNAMGWYRQAPGKERELVAAISSDGTTYYADSVKGRFTISRDNAKNTVYLQMNSLKPEDTAVYYCAKDRRYYKAYDYWGQGTLVTVSS | low polyreactivity
21 | QVQLVESGGGLVQAGGSLRLSCAASGRINYFYAIVWSRQAPGKEQELVAAISTSGGSTYYADCVKGRFTISRDNAKNTLYLQMNSLTPEETAVYDCAARFRYYGSEYDYWGQGTQVTVSS | low polyreactivity
22 | QVQLVDSRGGLVQAGGSLRLSCAASGRTLYSNAKGLSRQAPGKERDLVAAISGSGDTTYYADSVKGRFTISRDNAKNTVYLTMKSLKPEDTAVYYCAADHDSYGAGYEYCGQGTQVTVSS | low polyreactivity

Row | Sequence | polyreactivity (PSR sort gate)
23 | QVQLVESGGRLVQAGGSLRLSCAASGRIFTGSNVMGWYRQAPGKEREFVAVINSGGGSTYYADSVKGRFTISRDNAKNTVYLQMNSLKPEDTAVYYCAADVGGWGYYDWVQGTQVTVSS | low polyreactivity
24 | QVQLVDSGGGLVQAGGSLRISCAASGRTFYWYAMGWSRQAPGKEREFVAAISWNVGSTYYADSVKGRFTISRDHAKNTVYLQMNSLKPEDTAVYYCAAELGYPYSTYADWYYYWGQGTQVTVSS | high polyreactivity
25 | QVQLVESGGGLVQAGGSLRLSCAASGSTFVKNTMGWYRQAPGKERELVAAIRSSGGSTYYADSVKGRFTISRDNAKNTVYLQMNSLKPEDTAVYYCAAPRVSVHGGGYWGQGTQVTVSS | high polyreactivity
26 | QVQLVESGGGLVQAGGSLRLSCAASGYTFRYYAMGWYRQAPGKERELVAAITWSGGSTYYADSVKGRFTISRDNAKNTVYLQMNSLKPEDTAVYYCATDSARVGNFPDPQFDYWGQGTQVTVSS | low polyreactivity
27 | QVQLVESGGGLVQAGGSLRLSCAASGSTFGLKAMGWYRQAPGKERELVAAITSGGTYYADSVKGRFTISRDNAKNTVYLQMNSLKPEDTAVYYCAADGTWSIYGGLYYWGQGTQVTVSS | low polyreactivity
28 | QVQLVESGGGLVQAGGSLRLSCAASGLTFDGNAMGWYRQAPGKERELVATIRSGGGTNYADSVKGRFTISRDNAKNTVYLQMNSLKPEDTAVYYCNADYRSVYSPVQYPGEYYYWGQGTQVTVSS | low polyreactivity
29 | QVQLVESGGGLVQAGGSLRLSCAASGITFYHYAMGWYRQAPGKEREFVASITSSGGSTYYADSVKGRFTISRDNAKNTVYLQMNSLKPDDSAVYYCAARGYNPYGRKVGYLGQGTQVTVSS | high polyreactivity
30 | QVQLVESGGGLVQAGGSLRLSCAGSGRTFGRYAMGGYRQAPGKERELVAAIRSGGSTYYADSVKGRFTISRDNAKNTVYFQMNSLKPEDTAVYYCAADSTSLYNYWGQGTQVTVLS | low polyreactivity
31 | QVQLVDSGGGLVQAGGSLSLSCAASGRIFTHYSMGWYRQATGKERELVAGMSQGGGSTYYADSVKGRFTISRDNAKNTVYLQMNSLKPEDTAVYYCAKTYDYVDYDYWGQGTQVTVSS | low polyreactivity
32 | QVQLVESGGGLVQAGGSLRLRSAASGFTFHRYAMGWSRQAPGKERELVAGITRRSGSTFYADSVKGRFTISRDNAKNTVYLQMNSLKPEDTAVYYCAATVPGLHWIYDYWGQGTQVTVSS | high polyreactivity
33 | QVQLVESGGGLVQAGGSLRLSCAASGFTFRDYAMGWYRQAPGKERELVAAISRSGDSTYYADSVKGRFTISRDNAKNTVYLQMNSLKPEDTAVYDYAAKRRYTTYDYWGQGTQVTVSS | high polyreactivity
34 | QVQLVESGGGLVQAGGSLRLSCAASGSIFGTYAMGWYRQAPGKERELVAAITTSAGSTYYADSVKGRFTISRDNAKNTVYLEMNSLKPEDTAVYYCAKYAYTSVHSWYYYWGQGTQVTVSS | high polyreactivity
35 | QVQLVESGGGLVQAGGSLRLSCAASGFTYKYYAMGWYRQAPGKERELVAAIRRSAGSTNYADSVKGRFTISRDNAKNTVYLQMNSLKPEDTAVYYCNTVGTRQPMDYWGQGTQVTVSS | high polyreactivity
36 | QVHLVESGGRLVKAGGSLRLSCPASGYITTKYAMGWYRQAPGKEMELVAAIRYSGTSTYYADSVKGRFTISRDNATNTVYLQMNSLKPEDTAVYYCNTRRYVRTTKYDYWGQGTQVTVSS | high polyreactivity
37 | QVQLVESGGGLVQAGGSLRLSCAASGRILDWYAMGWYRQAPGTERELVASIYSTGGSSYYADSVKGRFTISRDHAKNTVYLQMNRLKPDDTAVYYCAAVIRSQDGRGYDYWGHGTQVTVSS | high polyreactivity
38 | QVQLVESGGGLVQAGGSLRLSCAASGSIFVSYAMGWYRQAPGKERELVAAITRSGGSTYYADSVKGRFTISRDNAKNTLYLQMNSLKPEDTAVYYCAARSYLGAYRRYYWGQGTQVTVSS | high polyreactivity
39 | QVQLVESVGGLVQAGGSLRLSCASSGSIFEGSAMGRYRQAPGKEMELVASISSGGSTNYADSVKGRFTISRDNAKNTVYLQMNSLKPEDTAVYYCAAEWVWYKWEFEYWGQGTKVTVSS | high polyreactivity
40 | QVQLVESGGGLVQAGGSLRLSCAASGRTFTGYAMGWYRQAPGKERELVAAISASGGSTYYADSVKGRFTISRDIAKNTVYFQMNSLKPEDTAVYYCAAETWYSVLWEEGYDYWGQGTQVTVSS | low polyreactivity
41 | QVQHEDSGGCLVQAAGSLSVSCAATGSTFDTYEMGRSRKATGKEMELVAAISSGGGTKYADSVKGRFKISRDNAKNTVYLQMNSLKPEDTAVYYCAADKAVGDSTRYYYWGQGTQVTVSS | low polyreactivity
42 | QVQLVESGGGLVQAGGSLRLSCAASGRTFHGYAMGWYRQAPGKERELVARINWSDGRTYYADSVKGRFTISRDNAKNTVYLQMNSLKPEEPAVYYCAATRYYYYWYVYEDRGDFWGQGTQVTVSS | low polyreactivity
43 | QVQLVESGGGLVQAGGSLRLSCAASGRILYFYIGWYRQAPGTEREFVADISSTTSTYYADSVKGRFTISRDNAKNTVYLQMKSLKPEDTAVYYCAAPGDGYAYPIVWYGYSGYYYWGQGTQVTVSS | low polyreactivity
